Numbered stars: 1 amine (or outer) side, 2 acyl side, 3 side chain; on linkers, the order of the positions; unused ones are H or OH. Bridge positions count the residues as written; N and C are the ends. Side chains are listed from the residue outwards. Ends that are not written are not given here. * marks the point of attachment. C20 diacid = O=C(O)CCCCCCCCCCCCCCCCCCC(=O)*; γGlu = O=C(O)[C@H](CCC(=O)[*:2])N[*:1]; AEEA = NCCOCCOCC(=O)O
T1: human amylin receptor (amylin 3(a) receptor: human calcitonin receptor plus RAMP-3) (human, UniProt P30988 25-474; O60896 24-148, limits assumed)
T1 sequence (looked up) 1: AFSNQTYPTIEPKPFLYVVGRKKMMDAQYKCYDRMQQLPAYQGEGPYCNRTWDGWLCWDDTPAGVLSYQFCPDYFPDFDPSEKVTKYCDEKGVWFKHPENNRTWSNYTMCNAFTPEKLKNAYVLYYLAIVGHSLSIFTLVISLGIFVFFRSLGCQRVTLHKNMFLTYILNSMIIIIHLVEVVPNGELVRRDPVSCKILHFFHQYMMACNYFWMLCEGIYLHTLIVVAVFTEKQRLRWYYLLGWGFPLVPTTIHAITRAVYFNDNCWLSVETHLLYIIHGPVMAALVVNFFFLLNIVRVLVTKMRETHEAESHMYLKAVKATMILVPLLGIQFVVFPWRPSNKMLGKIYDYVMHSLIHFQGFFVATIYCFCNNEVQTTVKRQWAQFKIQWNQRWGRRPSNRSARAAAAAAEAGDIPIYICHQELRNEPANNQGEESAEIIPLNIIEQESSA
T1 sequence (looked up) 2: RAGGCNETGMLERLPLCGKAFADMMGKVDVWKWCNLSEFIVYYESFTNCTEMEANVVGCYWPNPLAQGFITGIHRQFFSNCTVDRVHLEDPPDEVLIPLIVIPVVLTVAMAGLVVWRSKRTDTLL

T2: human calcitonin receptor (human, UniProt P30988 25-474)
T2 sequence (looked up): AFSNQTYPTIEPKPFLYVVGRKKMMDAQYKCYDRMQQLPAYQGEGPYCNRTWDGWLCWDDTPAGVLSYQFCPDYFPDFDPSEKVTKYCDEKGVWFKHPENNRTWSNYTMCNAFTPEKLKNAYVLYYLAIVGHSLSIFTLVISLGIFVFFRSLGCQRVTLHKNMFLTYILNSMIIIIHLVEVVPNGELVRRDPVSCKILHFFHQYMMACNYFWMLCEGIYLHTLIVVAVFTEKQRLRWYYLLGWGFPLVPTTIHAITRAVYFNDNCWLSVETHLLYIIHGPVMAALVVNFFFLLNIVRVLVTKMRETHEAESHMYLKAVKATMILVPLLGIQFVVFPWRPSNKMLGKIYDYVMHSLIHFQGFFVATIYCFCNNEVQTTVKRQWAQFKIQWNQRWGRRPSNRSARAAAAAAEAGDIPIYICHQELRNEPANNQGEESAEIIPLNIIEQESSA


Tests used:
[1] = target: T1, human amylin receptor (amylin 3(a) …); test: cell-based or functional assay
[2] = target: T2, human calcitonin receptor; test: cell-based or functional assay

| Binder | Ratio hCT/hAmylin funct. [1] | hAmylin-R funct. EC50 [1] | hCTR funct. EC50 [2] |
| --- | --- | --- | --- |
| K([AEEA-AEEA-γGlu-C20 diacid])CNTATCATQRLANFLRHSSPNFGAIPSSTNVGSETY-NH2 (disulfide 2-7; N-terminus assumed; SMILES CC[C@H](C)[C@H](NC(=O)[C@H](C)NC(=O)CNC(=O)[C@H](Cc1ccccc1)NC(=O)[C@H](CC(N)=O)NC(=O)[C@@H]1CCCN1C(=O)[C@H](CO)NC(=O)[C@H](CO)NC(=O)[C@H](Cc1c[nH]cn1)NC(=O)[C@H](CCCNC(=N)N)NC(=O)[C@H](CC(C)C)NC(=O)[C@H](Cc1ccccc1)NC(=O)[C@H](CC(N)=O)NC(=O)[C@H](C)NC(=O)[C@H](CC(C)C)NC(=O)[C@H](CCCNC(=N)N)NC(=O)[C@H](CCC(N)=O)NC(=O)[C@@H](NC(=O)[C@H](C)NC(=O)[C@@H]1CSSC[C@H](NC(=O)[C@@H](N)CCCCNC(=O)COCCOCCNC(=O)COCCOCCNC(=O)CC[C@H](NC(=O)CCCCCCCCCCCCCCCCCCC(=O)O)C(=O)O)C(=O)N[C@@H](CC(N)=O)C(=O)N[C@@H]([C@@H](C)O)C(=O)N[C@@H](C)C(=O)N[C@@H]([C@@H](C)O)C(=O)N1)[C@@H](C)O)C(=O)N1CCC[C@H]1C(=O)N[C@@H](CO)C(=O)N[C@@H](CO)C(=O)N[C@H](C(=O)N[C@@H](CC(N)=O)C(=O)N[C@H](C(=O)NCC(=O)N[C@@H](CO)C(=O)N[C@@H](CCC(=O)O)C(=O)N[C@H](C(=O)N[C@@H](Cc1ccc(O)cc1)C(N)=O)[C@@H](C)O)C(C)C)[C@@H](C)O, Synthetic acylated analogue of human amylin; also called compound 25) | 46.2 ratio | 0.217 nM | 10 nM |
| K([AEEA-γGlu-C20 diacid])CNTATCATQRLANFLRHSSPNFGAIPSSTNVGSETY-NH2 (disulfide 2-7; N-terminus assumed; SMILES CC[C@H](C)[C@H](NC(=O)[C@H](C)NC(=O)CNC(=O)[C@H](Cc1ccccc1)NC(=O)[C@H](CC(N)=O)NC(=O)[C@@H]1CCCN1C(=O)[C@H](CO)NC(=O)[C@H](CO)NC(=O)[C@H](Cc1c[nH]cn1)NC(=O)[C@H](CCCNC(=N)N)NC(=O)[C@H](CC(C)C)NC(=O)[C@H](Cc1ccccc1)NC(=O)[C@H](CC(N)=O)NC(=O)[C@H](C)NC(=O)[C@H](CC(C)C)NC(=O)[C@H](CCCNC(=N)N)NC(=O)[C@H](CCC(N)=O)NC(=O)[C@@H](NC(=O)[C@H](C)NC(=O)[C@@H]1CSSC[C@H](NC(=O)[C@@H](N)CCCCNC(=O)COCCOCCNC(=O)CC[C@H](NC(=O)CCCCCCCCCCCCCCCCCCC(=O)O)C(=O)O)C(=O)N[C@@H](CC(N)=O)C(=O)N[C@@H]([C@@H](C)O)C(=O)N[C@@H](C)C(=O)N[C@@H]([C@@H](C)O)C(=O)N1)[C@@H](C)O)C(=O)N1CCC[C@H]1C(=O)N[C@@H](CO)C(=O)N[C@@H](CO)C(=O)N[C@H](C(=O)N[C@@H](CC(N)=O)C(=O)N[C@H](C(=O)NCC(=O)N[C@@H](CO)C(=O)N[C@@H](CCC(=O)O)C(=O)N[C@H](C(=O)N[C@@H](Cc1ccc(O)cc1)C(N)=O)[C@@H](C)O)C(C)C)[C@@H](C)O, Synthetic acylated analogue of human amylin; also called compound 26) | 29.9 ratio | 0.212 nM | 6.34 nM |

Other lines, results leading:

| Ratio hCT/hAmylin funct. [1] | hAmylin-R funct. EC50 [1] | hCTR funct. EC50 [2] | Binder |
| --- | --- | --- | --- |
| 9.6 ratio | 0.103 nM | 0.987 nM | K([AEEA-γGlu-C20 diacid])CNTATCATQRLANFLRHSSPNFGAIPSPTPVGSNTY-NH2 (disulfide 2-7; N-terminus assumed; SMILES CC[C@H](C)[C@H](NC(=O)[C@H](C)NC(=O)CNC(=O)[C@H](Cc1ccccc1)NC(=O)[C@H](CC(N)=O)NC(=O)[C@@H]1CCCN1C(=O)[C@H](CO)NC(=O)[C@H](CO)NC(=O)[C@H](Cc1c[nH]cn1)NC(=O)[C@H](CCCNC(=N)N)NC(=O)[C@H](CC(C)C)NC(=O)[C@H](Cc1ccccc1)NC(=O)[C@H](CC(N)=O)NC(=O)[C@H](C)NC(=O)[C@H](CC(C)C)NC(=O)[C@H](CCCNC(=N)N)NC(=O)[C@H](CCC(N)=O)NC(=O)[C@@H](NC(=O)[C@H](C)NC(=O)[C@@H]1CSSC[C@H](NC(=O)[C@@H](N)CCCCNC(=O)COCCOCCNC(=O)CC[C@H](NC(=O)CCCCCCCCCCCCCCCCCCC(=O)O)C(=O)O)C(=O)N[C@@H](CC(N)=O)C(=O)N[C@@H]([C@@H](C)O)C(=O)N[C@@H](C)C(=O)N[C@@H]([C@@H](C)O)C(=O)N1)[C@@H](C)O)C(=O)N1CCC[C@H]1C(=O)N[C@@H](CO)C(=O)N1CCC[C@H]1C(=O)N[C@H](C(=O)N1CCC[C@H]1C(=O)N[C@H](C(=O)NCC(=O)N[C@@H](CO)C(=O)N[C@@H](CC(N)=O)C(=O)N[C@H](C(=O)N[C@@H](Cc1ccc(O)cc1)C(N)=O)[C@@H](C)O)C(C)C)[C@@H](C)O, Synthetic acylated analogue of human amylin; also called compound 54) |
| 9.8 ratio | 0.064 nM | 0.625 nM | K([AEEA-γGlu-C20 diacid])CNTATCATQRLANFLRHSSPNFGAIPPSTPVGSNTY-NH2 (disulfide 2-7, Synthetic acylated analogue of human amylin; also called compound 53) |
| 22.5 ratio | 0.106 nM | 2.39 nM | K([AEEA-γGlu-C20 diacid])CNTATCATQRLANFLRHSSPNFGAIPSSTPVGSNTY-NH2 (disulfide 2-7; N-terminus assumed; SMILES CC[C@H](C)[C@H](NC(=O)[C@H](C)NC(=O)CNC(=O)[C@H](Cc1ccccc1)NC(=O)[C@H](CC(N)=O)NC(=O)[C@@H]1CCCN1C(=O)[C@H](CO)NC(=O)[C@H](CO)NC(=O)[C@H](Cc1c[nH]cn1)NC(=O)[C@H](CCCNC(=N)N)NC(=O)[C@H](CC(C)C)NC(=O)[C@H](Cc1ccccc1)NC(=O)[C@H](CC(N)=O)NC(=O)[C@H](C)NC(=O)[C@H](CC(C)C)NC(=O)[C@H](CCCNC(=N)N)NC(=O)[C@H](CCC(N)=O)NC(=O)[C@@H](NC(=O)[C@H](C)NC(=O)[C@@H]1CSSC[C@H](NC(=O)[C@@H](N)CCCCNC(=O)COCCOCCNC(=O)CC[C@H](NC(=O)CCCCCCCCCCCCCCCCCCC(=O)O)C(=O)O)C(=O)N[C@@H](CC(N)=O)C(=O)N[C@@H]([C@@H](C)O)C(=O)N[C@@H](C)C(=O)N[C@@H]([C@@H](C)O)C(=O)N1)[C@@H](C)O)C(=O)N1CCC[C@H]1C(=O)N[C@@H](CO)C(=O)N[C@@H](CO)C(=O)N[C@H](C(=O)N1CCC[C@H]1C(=O)N[C@H](C(=O)NCC(=O)N[C@@H](CO)C(=O)N[C@@H](CC(N)=O)C(=O)N[C@H](C(=O)N[C@@H](Cc1ccc(O)cc1)C(N)=O)[C@@H](C)O)C(C)C)[C@@H](C)O, Synthetic acylated analogue of human amylin; also called compound 49) |

— patent US20140087995A1 (published 2014)
